Laboratory results as given in patent US20230406885A1, “CYCLIC PEPTIDES FOR TRAPPING INTERLEUKIN-1 BETA” (MERCK SHARP & DOHME LLC, priority 2022, published 2023).
*1 amine or outer side, *2 acyl side, *3 side chain or, on linkers, in order; H or OH if unused. [ ]: non-standard residue; d: D form. TyrEtNAc = L-tyrosine O-ethyl acetamide, (S)-3-(4-(2-acetamidoethoxy)phenyl)-2-aminopropanoic acid, CC(=O)NCCOc1ccc(C[C@H](N[*:1])C(=O)[*:2])cc1; 3AzaPhe4AcPip = (S)-3-(6-(4-acetylpiperazin-1-yl)pyridin-3-yl)-2-aminopropanoic acid, CC(=O)N1CCN(c2ccc(C[C@H](N[*:1])C(=O)[*:2])cn2)CC1; TyrEtMor = (S)-2-amino-3-(4-(2-morpholinoethoxy)phenyl)propanoic acid, O=C([C@H](Cc1ccc(OCCN2CCOCC2)cc1)N[*:1])[*:2]; Pro(trans-4-NH2) = O=C([C@@H]1C[C@@H](N[*:3])CN1[*:1])[*:2]; Bip(4'-COOH) = N[C@@H](Cc1ccc(-c2ccc(C(=O)O)cc2)cc1)C(=O)O; 1Nal(3S-Me) = C[C@@H](c1cccc2ccccc12)[C@H](N)C(=O)O; Ala(indazol-1-yl) = N[C@@H](Cn1ncc2ccccc21)C(=O)O; Ala(indolin-1-yl) = N[C@@H](CN1CCc2ccccc21)C(=O)O; Phe(4-COOH) = N[C@@H](Cc1ccc(C(=O)O)cc1)C(=O)O; h3Pal(5-CN) = N#Cc1cncc(CC[C@H](N)C(=O)O)c1; 1Nal = N[C@@H](Cc1cccc2ccccc12)C(=O)O; hTyr = N[C@@H](CCc1ccc(O)cc1)C(=O)O; 4Pal = N[C@@H](Cc1ccncc1)C(=O)O; Orn = NCCC[C@H](N)C(=O)O; dNMeA = CN[C@H](C)C(=O)O; Dab = NCC[C@H](N)C(=O)O; Dap = NC[C@H](N)C(=O)O; Aib = CC(C)(N)C(=O)O

B1: SEQ ID NO: 120 (peptide)
peptide: cyclo([TyrEtNAc]W[Phe(4-COOH)]G[Pro(trans-4-NH2)][1Nal(3S-Me)]D[dNMeA]G[Bip(4'-COOH)]W[Dap][dA][TyrEtMor])
SMILES: CC(=O)NCCOc1ccc(C[C@@H]2NC(=O)[C@H](Cc3ccc(OCCN4CCOCC4)cc3)NC(=O)[C@@H](C)NC(=O)[C@H](CN)NC(=O)[C@H](Cc3c[nH]c4ccccc34)NC(=O)[C@H](Cc3ccc(-c4ccc(C(=O)O)cc4)cc3)NC(=O)CNC(=O)[C@@H](C)N(C)C(=O)[C@H](CC(=O)O)NC(=O)[C@H]([C@@H](C)c3cccc4ccccc34)NC(=O)[C@@H]3C[C@@H](N)CN3C(=O)CNC(=O)[C@H](Cc3ccc(C(=O)O)cc3)NC(=O)[C@H](Cc3c[nH]c4ccccc34)NC2=O)cc1
B2: SEQ ID NO: 17 (peptide)
peptide: cyclo([Bip(4'-COOH)]W[Phe(4-COOH)]G[Pro(trans-4-NH2)][1Nal(3S-Me)]D[dNMeA]G[Bip(4'-COOH)][1Nal][Dap][Aib]G)
SMILES: C[C@@H]1C(=O)NCC(=O)N[C@@H](Cc2ccc(-c3ccc(C(=O)O)cc3)cc2)C(=O)N[C@@H](Cc2cccc3ccccc23)C(=O)N[C@@H](CN)C(=O)NC(C)(C)C(=O)NCC(=O)N[C@@H](Cc2ccc(-c3ccc(C(=O)O)cc3)cc2)C(=O)N[C@@H](Cc2c[nH]c3ccccc23)C(=O)N[C@@H](Cc2ccc(C(=O)O)cc2)C(=O)NCC(=O)N2C[C@H](N)C[C@H]2C(=O)N[C@@H]([C@@H](C)c2cccc3ccccc23)C(=O)N[C@@H](CC(=O)O)C(=O)N1C
B3: SEQ ID NO: 21 (peptide)
peptide: cyclo([Bip(4'-COOH)]W[Phe(4-COOH)]G[Pro(trans-4-NH2)][1Nal(3S-Me)]D[dNMeA]G[Bip(4'-COOH)][4Pal][Dap][dA][h3Pal(5-CN)])
SMILES: C[C@@H]1C(=O)NCC(=O)N[C@@H](Cc2ccc(-c3ccc(C(=O)O)cc3)cc2)C(=O)N[C@@H](Cc2ccncc2)C(=O)N[C@@H](CN)C(=O)N[C@H](C)C(=O)N[C@@H](CCc2cncc(C#N)c2)C(=O)N[C@@H](Cc2ccc(-c3ccc(C(=O)O)cc3)cc2)C(=O)N[C@@H](Cc2c[nH]c3ccccc23)C(=O)N[C@@H](Cc2ccc(C(=O)O)cc2)C(=O)NCC(=O)N2C[C@H](N)C[C@H]2C(=O)N[C@@H]([C@@H](C)c2cccc3ccccc23)C(=O)N[C@@H](CC(=O)O)C(=O)N1C
B4: SEQ ID NO: 16 (peptide)
peptide: cyclo([Bip(4'-COOH)]W[Phe(4-COOH)]G[Pro(trans-4-NH2)][1Nal(3S-Me)]D[dNMeA]G[Bip(4'-COOH)][1Nal][Dab][Aib][hTyr])
SMILES: C[C@@H]1C(=O)NCC(=O)N[C@@H](Cc2ccc(-c3ccc(C(=O)O)cc3)cc2)C(=O)N[C@@H](Cc2cccc3ccccc23)C(=O)N[C@@H](CCN)C(=O)NC(C)(C)C(=O)N[C@@H](CCc2ccc(O)cc2)C(=O)N[C@@H](Cc2ccc(-c3ccc(C(=O)O)cc3)cc2)C(=O)N[C@@H](Cc2c[nH]c3ccccc23)C(=O)N[C@@H](Cc2ccc(C(=O)O)cc2)C(=O)NCC(=O)N2C[C@H](N)C[C@H]2C(=O)N[C@@H]([C@@H](C)c2cccc3ccccc23)C(=O)N[C@@H](CC(=O)O)C(=O)N1C
B5: SEQ ID NO: 19 (peptide)
peptide: cyclo([Bip(4'-COOH)]W[Phe(4-COOH)]G[Pro(trans-4-NH2)][1Nal(3S-Me)]D[dNMeA]G[Bip(4'-COOH)][1Nal]L[Aib]G)
SMILES: CC(C)C[C@@H]1NC(=O)[C@H](Cc2cccc3ccccc23)NC(=O)[C@H](Cc2ccc(-c3ccc(C(=O)O)cc3)cc2)NC(=O)CNC(=O)[C@@H](C)N(C)C(=O)[C@H](CC(=O)O)NC(=O)[C@H]([C@@H](C)c2cccc3ccccc23)NC(=O)[C@@H]2C[C@@H](N)CN2C(=O)CNC(=O)[C@H](Cc2ccc(C(=O)O)cc2)NC(=O)[C@H](Cc2c[nH]c3ccccc23)NC(=O)[C@H](Cc2ccc(-c3ccc(C(=O)O)cc3)cc2)NC(=O)CNC(=O)C(C)(C)NC1=O
B6: SEQ ID NO: 15 (peptide)
peptide: cyclo([Bip(4'-COOH)]W[Phe(4-COOH)]G[Pro(trans-4-NH2)][1Nal(3S-Me)]D[dNMeA]G[Bip(4'-COOH)][1Nal][Dab][Aib]G)
SMILES: C[C@@H]1C(=O)NCC(=O)N[C@@H](Cc2ccc(-c3ccc(C(=O)O)cc3)cc2)C(=O)N[C@@H](Cc2cccc3ccccc23)C(=O)N[C@@H](CCN)C(=O)NC(C)(C)C(=O)NCC(=O)N[C@@H](Cc2ccc(-c3ccc(C(=O)O)cc3)cc2)C(=O)N[C@@H](Cc2c[nH]c3ccccc23)C(=O)N[C@@H](Cc2ccc(C(=O)O)cc2)C(=O)NCC(=O)N2C[C@H](N)C[C@H]2C(=O)N[C@@H]([C@@H](C)c2cccc3ccccc23)C(=O)N[C@@H](CC(=O)O)C(=O)N1C
B7: SEQ ID NO: 20 (peptide)
peptide: cyclo([Bip(4'-COOH)]W[Phe(4-COOH)]G[Pro(trans-4-NH2)][1Nal(3S-Me)]D[dNMeA]G[Bip(4'-COOH)][1Nal][Orn][Aib]G)
SMILES: C[C@@H]1C(=O)NCC(=O)N[C@@H](Cc2ccc(-c3ccc(C(=O)O)cc3)cc2)C(=O)N[C@@H](Cc2cccc3ccccc23)C(=O)N[C@@H](CCCN)C(=O)NC(C)(C)C(=O)NCC(=O)N[C@@H](Cc2ccc(-c3ccc(C(=O)O)cc3)cc2)C(=O)N[C@@H](Cc2c[nH]c3ccccc23)C(=O)N[C@@H](Cc2ccc(C(=O)O)cc2)C(=O)NCC(=O)N2C[C@H](N)C[C@H]2C(=O)N[C@@H]([C@@H](C)c2cccc3ccccc23)C(=O)N[C@@H](CC(=O)O)C(=O)N1C
B8: SEQ ID NO: 13 (peptide)
peptide: cyclo([Bip(4'-COOH)]W[Phe(4-COOH)]G[Pro(trans-4-NH2)][1Nal(3S-Me)]D[dNMeA]G[Bip(4'-COOH)][Ala(indazol-1-yl)][Dap][dA][hTyr])
SMILES: C[C@@H]1C(=O)NCC(=O)N[C@@H](Cc2ccc(-c3ccc(C(=O)O)cc3)cc2)C(=O)N[C@@H](Cn2ncc3ccccc32)C(=O)N[C@@H](CN)C(=O)N[C@H](C)C(=O)N[C@@H](CCc2ccc(O)cc2)C(=O)N[C@@H](Cc2ccc(-c3ccc(C(=O)O)cc3)cc2)C(=O)N[C@@H](Cc2c[nH]c3ccccc23)C(=O)N[C@@H](Cc2ccc(C(=O)O)cc2)C(=O)NCC(=O)N2C[C@H](N)C[C@H]2C(=O)N[C@@H]([C@@H](C)c2cccc3ccccc23)C(=O)N[C@@H](CC(=O)O)C(=O)N1C
B9: SEQ ID NO: 22 (peptide)
peptide: cyclo([Bip(4'-COOH)]W[Phe(4-COOH)]G[Pro(trans-4-NH2)][1Nal(3S-Me)]D[dNMeA]G[Bip(4'-COOH)][4Pal][Dap][dA][hTyr])
SMILES: C[C@@H]1C(=O)NCC(=O)N[C@@H](Cc2ccc(-c3ccc(C(=O)O)cc3)cc2)C(=O)N[C@@H](Cc2ccncc2)C(=O)N[C@@H](CN)C(=O)N[C@H](C)C(=O)N[C@@H](CCc2ccc(O)cc2)C(=O)N[C@@H](Cc2ccc(-c3ccc(C(=O)O)cc3)cc2)C(=O)N[C@@H](Cc2c[nH]c3ccccc23)C(=O)N[C@@H](Cc2ccc(C(=O)O)cc2)C(=O)NCC(=O)N2C[C@H](N)C[C@H]2C(=O)N[C@@H]([C@@H](C)c2cccc3ccccc23)C(=O)N[C@@H](CC(=O)O)C(=O)N1C
B10: SEQ ID NO: 2 (peptide)
peptide: cyclo([3AzaPhe4AcPip]W[Phe(4-COOH)]G[Pro(trans-4-NH2)][1Nal(3S-Me)]D[dNMeA]G[Bip(4'-COOH)]KL[dA][h3Pal(5-CN)])
SMILES: CC(=O)N1CCN(c2ccc(C[C@@H]3NC(=O)[C@H](CCc4cncc(C#N)c4)NC(=O)[C@@H](C)NC(=O)[C@H](CC(C)C)NC(=O)[C@H](CCCCN)NC(=O)[C@H](Cc4ccc(-c5ccc(C(=O)O)cc5)cc4)NC(=O)CNC(=O)[C@@H](C)N(C)C(=O)[C@H](CC(=O)O)NC(=O)[C@H]([C@@H](C)c4cccc5ccccc45)NC(=O)[C@@H]4C[C@@H](N)CN4C(=O)CNC(=O)[C@H](Cc4ccc(C(=O)O)cc4)NC(=O)[C@H](Cc4c[nH]c5ccccc45)NC3=O)cn2)CC1
B11: SEQ ID NO: 14 (peptide)
peptide: cyclo([Bip(4'-COOH)]W[Phe(4-COOH)]G[Pro(trans-4-NH2)][1Nal(3S-Me)]D[dNMeA]G[Bip(4'-COOH)][Ala(indolin-1-yl)][Dap][dA][hTyr])
SMILES: C[C@@H]1C(=O)NCC(=O)N[C@@H](Cc2ccc(-c3ccc(C(=O)O)cc3)cc2)C(=O)N[C@@H](CN2CCc3ccccc32)C(=O)N[C@@H](CN)C(=O)N[C@H](C)C(=O)N[C@@H](CCc2ccc(O)cc2)C(=O)N[C@@H](Cc2ccc(-c3ccc(C(=O)O)cc3)cc2)C(=O)N[C@@H](Cc2c[nH]c3ccccc23)C(=O)N[C@@H](Cc2ccc(C(=O)O)cc2)C(=O)NCC(=O)N2C[C@H](N)C[C@H]2C(=O)N[C@@H]([C@@H](C)c2cccc3ccccc23)C(=O)N[C@@H](CC(=O)O)C(=O)N1C
B12: SEQ ID NO: 18 (peptide)
peptide: cyclo([Bip(4'-COOH)]W[Phe(4-COOH)]G[Pro(trans-4-NH2)][1Nal(3S-Me)]D[dNMeA]G[Bip(4'-COOH)][1Nal][Dap][Aib][h3Pal(5-CN)])
SMILES: C[C@@H]1C(=O)NCC(=O)N[C@@H](Cc2ccc(-c3ccc(C(=O)O)cc3)cc2)C(=O)N[C@@H](Cc2cccc3ccccc23)C(=O)N[C@@H](CN)C(=O)NC(C)(C)C(=O)N[C@@H](CCc2cncc(C#N)c2)C(=O)N[C@@H](Cc2ccc(-c3ccc(C(=O)O)cc3)cc2)C(=O)N[C@@H](Cc2c[nH]c3ccccc23)C(=O)N[C@@H](Cc2ccc(C(=O)O)cc2)C(=O)NCC(=O)N2C[C@H](N)C[C@H]2C(=O)N[C@@H]([C@@H](C)c2cccc3ccccc23)C(=O)N[C@@H](CC(=O)O)C(=O)N1C

target: Recombinant human IL-1β (BioLegend 579404) (human, UniProt P01584 117-269); experiment: cell-based or functional assay

MRC5 IC50 [nM] | Binder
0.86 | B1
0.222 | B2
0.0234 | B3
0.175 | B4
0.118 | B5
0.653 | B6
0.44 | B7
0.031 | B8
0.0325 | B9
0.0217 | B10
0.0297 | B11
0.0885 | B12
